In the RNAGym collection of RNA variant scans (doi:10.7554/elife.80360):

B1: Twister Ribozyme (parent)
chain: AACACUGCCAAUGCCGGUCCCAAGCCCGGAUAAAAGUGGAGGGGGCGG

Variants of: B1
Assay: self-cleavage, relative activity (ratio to wild type); higher = more cleavage; co-transcriptional

Variant | self-cleavage
AACACUGCCAAUGCCGGUCCCAAGCACGGAUAAAAGUGGAGGGGGCGG | 0.706
AACACUGCCAAUGCCGGUCCCAAGCACGGCUAAAAGUGGAGGGGGCGG | 0.0881
AACACUGCCAAUGCCGGUCCCAAGCACGGUUAAAAGUGGAGGGGGCGG | 0.542
AACACUGCCAAUGCCGGUCCCAAGCACGGAUCAAAGUGGAGGGGGCGG | 0.575
AACACUGCCAAUGCCGGUCCCAAGCACGGAUUAAAGUGGAGGGGGCGG | 0.405
AACACUGCCAAUGCCGGUCCCAAGCACGGAUACAAGUGGAGGGGGCGG | 0.359
AACACUGCCAAUGCCGGUCCCAAGCACGGAUAGAAGUGGAGGGGGCGG | 0.257
AACACUGCCAAUGCCGGUCCCAAGCACGGAUAAACGUGGAGGGGGCGG | 0.572
AACACUGCCAAUGCCGGUCCCAAGCACGGAUAAAAGUGGGGGGGGCGG | 0.182
AACACUGCCAAUGCCGGUCCCAAGCAGGGAUAAAAGUGGAGGGGGCGG | 0.0974
AACACUGCCAAUGCCGGUCCCAAGCAUGGAUAAAAGUGGAGGGGGCGG | 0.0741
AACACUGCCAAUGCCGGUCCCAAGCACGGAUAAAAGUGGAGGGGGGGG | 0.358
AACACUGCCAAUGCCGGUCCCAAGCACGGAUAAAAGUGGAGGGGGUGG | 0.624
AACACUGCCAAUGCCGGUCCCAAGCACCGAUAAAAGUGGAGGGGGCGG | 0.48
AACACUGCCAAUGCCGGUCCCAAGCACUGAUAAAAGUGGAGGGGGCGG | 0.114
AACACUGCCAAUGCCGGUCCCAAGCACGAAUAAAAGUGGAGGGGGCGG | 0.267
AACACUGCCAAUGCCGGUCCCAAGCACGCAUAAAAGUGGAGGGGGCGG | 0.122
AACACUGCCAAUGCCGGUCCCAAGCACGUAUAAAAGUGGAGGGGGCGG | 0.214
AACACUGCCAAUGCCGGUCCCAAGCACGGAUAAAACUGGAGGGGGCGG | 0.105
AACACUGCCAAUGCCGGUCCCAAGCACGGAUAAAAUUGGAGGGGGCGG | 0.091
AACACUGCCAAUGCCGGUCCCAAGCACGGAUAAAAGUAGAGGGGGCGG | 0.143
AACACUGCCAAUGCCGGUCCCAAGCACGGAUAAAAGUUGAGGGGGCGG | 0.221
AACACUGCCAAUGCCGGUCCCAAGCACGGAUAAAAGUGAAGGGGGCGG | 0.107
AACACUGCCAAUGCCGGUCCCAAGCACGGAUAAAAGUGUAGGGGGCGG | 0.116
AACACUGCCAAUGCCGGUCCCAAGCACGGAUAAAAGUGGAGAGGGCGG | 0.132
AACACUGCCAAUGCCGGUCCCAAGCACGGAUAAAAGUGGAGCGGGCGG | 0.131
AACACUGCCAAUGCCGGUCCCAAGCACGGAUAAAAGUGGAGGAGGCGG | 0.124

Variant | self-cleavage
AACACUGCCAAUGCCGGUCCCAAGCACGGAUAAAAGUGGAGGCGGCGG | 0.111
AACACUGCCAAUGCCGGUCCCAAGCACGGAUAAAAGUGGAGGUGGCGG | 0.11
AACACUGCCAAUGCCGGUCCCAAGCACGGAUAAAAGUGGAGGGCGCGG | 0.212
AACACUGCCAAUGCCGGUCCCAAGCACGGAUAAAAGUGGAGGGGACGG | 0.258
AACACUGCCAAUGCCGGUCCCAAGCACGGAUAAAAGUGGAGGGGUCGG | 0.136
AACACUGCCAAUGCCGGUCCCAAGCACGGAUAAAAGUGGAGGGGGCAG | 0.142
AACACUGCCAAUGCCGGUCCCAAGCACGGAUAAAAGUGGAGGGGGCCG | 0.2
AACACUGCCAAUGCCGGUCCCAAGCACGGAAAAAAGUGGAGGGGGCGG | 0.638
AACACUGCCAAUGCCGGUCCCAAGCACGGACAAAAGUGGAGGGGGCGG | 0.7
AACACUGCCAAUGCCGGUCCCAAGCACGGAUAAAAGCGGAGGGGGCGG | 0.105
AACACUGCCAAUGCCGGUCCCAAGCGCGGAUAAAAGUGGAGGGGGCGG | 0.449
AACACUGCCAAUGCCGGUCCCAAGCGCGGGUAAAAGUGGAGGGGGCGG | 0.214
AACACUGCCAAUGCCGGUCCCAAGCGCGGAUUAAAGUGGAGGGGGCGG | 0.193
AACACUGCCAAUGCCGGUCCCAAGCGCGGAUACAAGUGGAGGGGGCGG | 0.129
AACACUGCCAAUGCCGGUCCCAAGCGCGGAUAAGAGUGGAGGGGGCGG | 0.0982
AACACUGCCAAUGCCGGUCCCAAGCGCGGAUAAUAGUGGAGGGGGCGG | 0.15
AACACUGCCAAUGCCGGUCCCAAGCGCGGAUAAACGUGGAGGGGGCGG | 0.319
AACACUGCCAAUGCCGGUCCCAAGCGCGGAUAAAGGUGGAGGGGGCGG | 0.16
AACACUGCCAAUGCCGGUCCCAAGCGCGGAUAAAAGUGGGGGGGGCGG | 0.127
AACACUGCCAAUGCCGGUCCCAAGCGAGGAUAAAAGUGGAGGGGGCGG | 0.107
AACACUGCCAAUGCCGGUCCCAAGCGGGGAUAAAAGUGGAGGGGGCGG | 0.106
AACACUGCCAAUGCCGGUCCCAAGCGCGGAUAAAAGUGGAGGGGGUGG | 0.361
AACACUGCCAAUGCCGGUCCCAAGCGCCGAUAAAAGUGGAGGGGGCGG | 0.142
AACACUGCCAAUGCCGGUCCCAAGCGCUGAUAAAAGUGGAGGGGGCGG | 0.0926
AACACUGCCAAUGCCGGUCCCAAGCGCGGAUAAAAAUGGAGGGGGCGG | 0.0913
AACACUGCCAAUGCCGGUCCCAAGCGCGGAUAAAAUUGGAGGGGGCGG | 0.0699
AACACUGCCAAUGCCGGUCCCAAGCGCGGAUAAAAGUCGAGGGGGCGG | 0.202
